Results as given in patent US20150284436A1 (published 2015).

What was measured:
[1] = target: T1, FLAG-tagged TXNIP with Cys63 substituted with serine (human, UniProt Q9H3M7 1-391); assay: GST pull-down / co-IP from 293T lysates, Western blot
T1 chain: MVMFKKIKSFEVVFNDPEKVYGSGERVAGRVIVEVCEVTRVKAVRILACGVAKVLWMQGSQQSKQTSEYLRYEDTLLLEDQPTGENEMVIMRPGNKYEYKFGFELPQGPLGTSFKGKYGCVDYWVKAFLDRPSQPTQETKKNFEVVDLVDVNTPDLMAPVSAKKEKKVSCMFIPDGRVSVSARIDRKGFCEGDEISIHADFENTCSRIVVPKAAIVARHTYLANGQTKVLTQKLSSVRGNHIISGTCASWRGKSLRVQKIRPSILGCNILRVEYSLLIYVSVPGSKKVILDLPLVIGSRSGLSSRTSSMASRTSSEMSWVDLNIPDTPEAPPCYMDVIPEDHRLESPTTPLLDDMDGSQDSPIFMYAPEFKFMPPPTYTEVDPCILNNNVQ
Description: (§1) Coimmunoprecipitation assays were performed using lysates from 293T cells transfected with combinations of FLAG-tagged or HA-tagged TXNIP plasmids and GST-tagged or FLAG-tagged TXNIP plasmids. Immobilized proteins on FLAG-agarose beads or glutathione beads were visualized by Western blot analysis using anti-HA, anti-FLAG, or anti-GST antibodies. One percent of WCL was used as the input;
(§2) To test the in vivo interprotomer interaction between TXNIP molecules, HEK 293T cells were transfected with plasmids expressing HA-tagged-TXNIP and FLAG-tagged T-TXNIP. 24 hours later, the cells were harvested and lysed in the 50 mM iodoacetamide-containing buffer [0.5% Triton X-100, 150 mM NaCl, 10% glycerol, 1 mM NaF, 1 mM AEBSF, 2 μg/mL leupeptin, 5 μg/mL aprotinin and 20 mM HEPES (pH 7.2)]. After centrifugation at 16,000 rpm for 20 minutes, the supernatant was incubated with anti-FLAG M2 agarose (Sigma) at 4° C. for 12 hours. The immobilized proteins were collected by centrifugation and washed three times with the lysis buffer. The bound proteins were subjected to SDS-PAGE under reduced and non-reduced conditions. […] 24 hours later, the cells were harvested and lysed in the lysis buffer. […]

[2] = target: T2, FLAG-tagged TXNIP with Cys247 substituted with serine (human, UniProt Q9H3M7 1-391); assay: as above
T2 chain: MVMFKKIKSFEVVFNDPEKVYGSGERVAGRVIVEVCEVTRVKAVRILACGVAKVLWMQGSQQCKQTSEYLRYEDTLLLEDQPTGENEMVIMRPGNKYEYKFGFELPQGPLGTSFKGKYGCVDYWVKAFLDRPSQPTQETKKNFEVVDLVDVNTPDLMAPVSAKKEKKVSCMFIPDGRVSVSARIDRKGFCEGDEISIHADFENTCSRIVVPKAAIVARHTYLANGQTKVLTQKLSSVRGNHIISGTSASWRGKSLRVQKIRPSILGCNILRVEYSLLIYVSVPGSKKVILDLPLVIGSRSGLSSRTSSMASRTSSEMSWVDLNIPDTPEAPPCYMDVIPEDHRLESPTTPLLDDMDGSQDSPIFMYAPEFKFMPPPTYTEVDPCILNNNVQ
Description: as §1, §2

[3] = target: T3, N-TXNIP (N-terminal domain of TXNIP, residues 3-156) (human, UniProt Q9H3M7 3-156); assay: 1H-15N HSQC NMR
T3 construct: The NMR sample was 15N-labeled and its hexahistidine-tag was removed by rTEV; In the Ni-NTA co-purification it carried the N-terminal hexahistidine-tag; also called N-terminal TXNIP; ^15N-labeled N-TXNIP
T3 chain: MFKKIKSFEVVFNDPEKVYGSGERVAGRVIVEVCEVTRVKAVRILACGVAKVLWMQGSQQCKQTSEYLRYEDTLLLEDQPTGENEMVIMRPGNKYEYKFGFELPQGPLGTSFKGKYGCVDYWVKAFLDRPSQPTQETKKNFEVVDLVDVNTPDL
Description: NMR interaction experiments were carried out by recording ¹H-¹⁵N NMR HSQC spectra of ¹⁵N-labeled N-TXNIP upon addition of unlabeled TRX or its mutant, which was reduced with 5 mM DTT and dialyzed against 50 mM potassium phosphate (pH 6.6) prior to the interaction study to remove excess DTT.
The ¹H-¹⁵N HSQC spectra of all proteins were measured on a Bruker 900 MHz NMR spectrometer at the Korea Basic Science Institute (Ochang, Korea). The NMR measurements were performed using 0.3 mM ¹⁵N-labeled protein in 50 mM potassium phosphate (pH 6.6) containing 10% D₂O at 25° C. All NMR spectra were processed with Topspin 2.1 and analyzed with the program SPARKY 3.1.
Further, TRX muteins were added and ¹H-¹⁵N HSQC spectra of ¹⁵N-labeled N-TXNIP were monitored to examine interaction between N-TXNIP and TRX. […] In contrast, C62A, C69A, and C73A mutants caused a chemical shift similar to the wild-type TRX (FIG. 12).

[4] = target: the molecule itself; assay: non-reducing SDS-PAGE after air oxidation
Description: TRX(C73)-T-TXNIP(C36S/C49S/C120S/C170S/C205S/C267S) complex was incubated with 100 mM DTT and subjected to size exclusion chromatography to isolate T-TXNIP(C36S/C49S/C120S/C170S/C205S/C267S) from remained protein complex and TRX. The fractions containing T-TXNIP(C36S/C49S/C120S/C170S/C205S/C267S) were collected and dialyzed against 50 mM Tris-HCl (pH 8.0), 500 mM NaCl and 10% glycerol to induce the formation of disulfide bonds between TXNIP molecules;
For analysis by mass spectrometry in vitro, purified TRX(C73A)-T-TXNIP(C36S/C49S/C120S/C170S/C205S/C267S) complex was incubated with 100 mM DTT for 1 hour at room temperature and injected to the Superdex™ 200 10/300 GL gel filtration column installed on an AKTA purifier FPLC system to obtain T-TXNIP(C36S/C49S/C120S/C170S/C205S/C267S) from remained protein complex and TRX(C73 Å). The fractions containing T-TXNIP(C36S/C49S/C120S/C170S/C205S/C267S) were dialyzed against 50 mM Tris-HCl (pH 8.0), 500 mM NaCl and 10% glycerol to induce the formation of disulfide bonds between TXNIP molecules through air oxidation. Dialyzed proteins were then subjected to SDS-PAGE under non-reducing conditions.

[5] = target: T4, TRX(C73A), tag-free, co-expressed in complex (human, UniProt P10599 1-105); assay: purified co-expressed complex, gel filtration before and after ROS treatment
T4 construct: Used in complex with T-TXNIP(C36S/C49S/C120S/C170S/C205S/C267S) to avoid TRX dimerization
T4 chain: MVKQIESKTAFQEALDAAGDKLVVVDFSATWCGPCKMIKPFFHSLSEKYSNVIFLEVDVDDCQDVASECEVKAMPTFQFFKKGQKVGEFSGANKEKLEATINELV
Description: In detail, the TRX-T-TXNIP(C120S/C170S/C205S/C267S) complex was incubated with H₂O₂ at 37° C. for 30 minutes (a). The TRX(C73A)-T-TXNIP(C36S/C49S/C120S/C170S/C205S/C267S) complex was incubated with diamide at 37° C. for 30 minutes. The reaction products were injected onto a HiLoad™ 16/60 Superdex™ 75 gel filtration column at room temperature (b). The TRX Cys35 residue is essential for dissociation between TRX and TXNIP. The TRX(C35A)-T-TXNIP(C120S/C170S/C205S/C267S) complex was incubated with diamide at 37° C. for 60 minutes and the reaction products were injected onto the Superdex™ 75 10/300 GL gel filtration column (c). Eluted T-TXNIP and TRX after the ROS treatments are indicated for each reaction. All eluted proteins were analyzed by SDS-PAGE;
The TRX and T-TXNIP(C120S/C170S/C205S/C267S) complex was used to circumvent non-functional cysteine-induced aggregation. The complex (at a concentration of 0.05 mM) was incubated with H₂O₂ at concentrations in the range of 0 to 10 mM in 50 mM Tris-HCl (pH 8.0), 500 mM NaCl, and 10% glycerol at 37° C. The TRX([…]) and T-TXNIP(C36S/C49S/C120S/C170S/C205S/C267S) complex was also used to avoid TRX dimerization and non-functional cysteine-induced aggregation. This complex was incubated with 0 to 3 mM diamide in 50 mM Tris-HCl (pH 8.0), 500 mM NaCl, and 10% glycerol at 37° C. […]

B1: GST-fused TXNIP with Cys63 substituted with serine (other)
chain: MVMFKKIKSFEVVFNDPEKVYGSGERVAGRVIVEVCEVTRVKAVRILACGVAKVLWMQGSQQSKQTSEYLRYEDTLLLEDQPTGENEMVIMRPGNKYEYKFGFELPQGPLGTSFKGKYGCVDYWVKAFLDRPSQPTQETKKNFEVVDLVDVNTPDLMAPVSAKKEKKVSCMFIPDGRVSVSARIDRKGFCEGDEISIHADFENTCSRIVVPKAAIVARHTYLANGQTKVLTQKLSSVRGNHIISGTCASWRGKSLRVQKIRPSILGCNILRVEYSLLIYVSVPGSKKVILDLPLVIGSRSGLSSRTSSMASRTSSEMSWVDLNIPDTPEAPPCYMDVIPEDHRLESPTTPLLDDMDGSQDSPIFMYAPEFKFMPPPTYTEVDPCILNNNVQ
Question: Does B1 bind [1]?
Answer: no binding

B2: GST-fused TXNIP with Cys247 substituted with serine (other)
chain: MVMFKKIKSFEVVFNDPEKVYGSGERVAGRVIVEVCEVTRVKAVRILACGVAKVLWMQGSQQCKQTSEYLRYEDTLLLEDQPTGENEMVIMRPGNKYEYKFGFELPQGPLGTSFKGKYGCVDYWVKAFLDRPSQPTQETKKNFEVVDLVDVNTPDLMAPVSAKKEKKVSCMFIPDGRVSVSARIDRKGFCEGDEISIHADFENTCSRIVVPKAAIVARHTYLANGQTKVLTQKLSSVRGNHIISGTSASWRGKSLRVQKIRPSILGCNILRVEYSLLIYVSVPGSKKVILDLPLVIGSRSGLSSRTSSMASRTSSEMSWVDLNIPDTPEAPPCYMDVIPEDHRLESPTTPLLDDMDGSQDSPIFMYAPEFKFMPPPTYTEVDPCILNNNVQ
Question: Does B2 bind [2]?
Answer: no binding

B3: TRX C32A mutant (NMR sample) (enzyme)
chain: MVKQIESKTAFQEALDAAGDKLVVVDFSATWAGPCKMIKPFFHSLSEKYSNVIFLEVDVDDCQDVASECEVKCMPTFQFFKKGQKVGEFSGANKEKLEATINELV
notes: not shown: C-terminal hexahistidine-tag from pET21 vector
Question: Does B3 bind [3]?
Answer: no binding

B4: T-TXNIP(C36S/C49S/C120S/C170S/C205S/C267S) (other)
chain: MFKKIKSFEVVFNDPEKVYGSGERVAGRVIVEVSEVTRVKAVRILASGVAKVLWMQGSQQCKQTSEYLRYEDTLLLEDQPTGENEMVIMRPGNKYEYKFGFELPQGPLGTSFKGKYGSVDYWVKAFLDRPSQPTQETKKNFEVVDLVDVNTPDLMAPVSAKKEKKVSSMFIPDGRVSVSARIDRKGFCEGDEISIHADFENTSSRIVVPKAAIVARHTYLANGQTKVLTQKLSSVRGNHIISGTCASWRGKSLRVQKIRPSILGSNILRVEYSLLIYVSVPGSKKVILDLPLVIGSRSGLSSRTSSMASRTSSEM
notes: 1 residues 3-317 (T-TXNIP) with the six printed substitutions; also called monomeric T-TXNIP mutant
Question: Does B4 bind [4]?
Answer: binds

Question: Does B4 bind [5]?
Answer: binds
